Results from IntAct's records for PubMed 20562859.

Tests used:
rasf5_human RASSF5 = target: T1, rasf5_human RASSF5 (UniProt Q8WWW0)
T1 sequence: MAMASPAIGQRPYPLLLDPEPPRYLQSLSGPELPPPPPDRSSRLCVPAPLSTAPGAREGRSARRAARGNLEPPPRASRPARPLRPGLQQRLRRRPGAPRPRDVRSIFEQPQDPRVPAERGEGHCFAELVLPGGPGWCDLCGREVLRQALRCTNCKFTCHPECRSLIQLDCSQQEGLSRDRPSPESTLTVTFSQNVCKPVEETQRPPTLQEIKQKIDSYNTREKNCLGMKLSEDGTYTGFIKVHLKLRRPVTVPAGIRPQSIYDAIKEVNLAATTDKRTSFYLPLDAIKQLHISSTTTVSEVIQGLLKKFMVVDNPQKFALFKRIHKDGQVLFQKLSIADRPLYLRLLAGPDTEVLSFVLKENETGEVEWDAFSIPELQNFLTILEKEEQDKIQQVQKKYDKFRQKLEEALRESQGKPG

fyco1_human FYCO1 = target: T2, fyco1_human FYCO1 (UniProt Q9BQS8)
T2 sequence: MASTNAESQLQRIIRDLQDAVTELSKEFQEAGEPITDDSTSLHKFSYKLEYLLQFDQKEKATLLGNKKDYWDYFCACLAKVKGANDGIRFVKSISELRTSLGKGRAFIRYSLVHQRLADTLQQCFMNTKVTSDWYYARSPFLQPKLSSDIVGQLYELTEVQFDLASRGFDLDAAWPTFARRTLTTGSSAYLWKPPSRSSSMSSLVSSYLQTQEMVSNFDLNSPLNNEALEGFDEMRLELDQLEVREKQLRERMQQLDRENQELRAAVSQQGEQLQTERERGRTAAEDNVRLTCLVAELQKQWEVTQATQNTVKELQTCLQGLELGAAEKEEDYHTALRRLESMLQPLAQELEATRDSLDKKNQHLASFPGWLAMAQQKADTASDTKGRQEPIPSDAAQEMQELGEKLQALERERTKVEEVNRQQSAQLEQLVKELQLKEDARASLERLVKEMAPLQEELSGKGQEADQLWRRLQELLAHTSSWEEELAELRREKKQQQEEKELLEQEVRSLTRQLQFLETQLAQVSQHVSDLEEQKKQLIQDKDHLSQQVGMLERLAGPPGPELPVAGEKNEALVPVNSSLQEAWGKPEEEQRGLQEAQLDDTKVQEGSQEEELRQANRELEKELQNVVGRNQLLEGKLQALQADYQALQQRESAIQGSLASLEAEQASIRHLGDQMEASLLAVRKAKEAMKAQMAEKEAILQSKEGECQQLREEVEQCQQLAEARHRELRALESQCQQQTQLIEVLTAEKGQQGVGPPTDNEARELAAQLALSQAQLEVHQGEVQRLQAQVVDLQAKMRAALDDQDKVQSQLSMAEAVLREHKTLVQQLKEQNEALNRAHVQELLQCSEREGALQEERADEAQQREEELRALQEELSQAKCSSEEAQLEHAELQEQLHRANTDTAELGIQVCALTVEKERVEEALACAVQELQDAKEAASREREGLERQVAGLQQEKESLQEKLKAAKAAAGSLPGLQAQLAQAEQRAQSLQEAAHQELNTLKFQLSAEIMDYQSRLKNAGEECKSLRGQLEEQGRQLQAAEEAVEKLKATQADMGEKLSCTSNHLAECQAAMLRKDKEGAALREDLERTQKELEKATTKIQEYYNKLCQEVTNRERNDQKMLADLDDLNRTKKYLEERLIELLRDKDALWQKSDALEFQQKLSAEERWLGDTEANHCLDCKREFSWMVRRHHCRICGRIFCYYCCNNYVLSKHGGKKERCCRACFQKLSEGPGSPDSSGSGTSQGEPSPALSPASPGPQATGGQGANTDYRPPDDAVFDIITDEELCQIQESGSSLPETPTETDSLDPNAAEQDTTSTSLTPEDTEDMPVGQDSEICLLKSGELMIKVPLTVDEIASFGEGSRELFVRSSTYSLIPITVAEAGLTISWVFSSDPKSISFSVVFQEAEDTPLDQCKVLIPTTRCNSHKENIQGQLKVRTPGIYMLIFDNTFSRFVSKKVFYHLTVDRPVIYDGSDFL

fan_human NSMAF = fan_human NSMAF (UniProt Q92636)
Chain of fan_human NSMAF (Q92636 whole entry): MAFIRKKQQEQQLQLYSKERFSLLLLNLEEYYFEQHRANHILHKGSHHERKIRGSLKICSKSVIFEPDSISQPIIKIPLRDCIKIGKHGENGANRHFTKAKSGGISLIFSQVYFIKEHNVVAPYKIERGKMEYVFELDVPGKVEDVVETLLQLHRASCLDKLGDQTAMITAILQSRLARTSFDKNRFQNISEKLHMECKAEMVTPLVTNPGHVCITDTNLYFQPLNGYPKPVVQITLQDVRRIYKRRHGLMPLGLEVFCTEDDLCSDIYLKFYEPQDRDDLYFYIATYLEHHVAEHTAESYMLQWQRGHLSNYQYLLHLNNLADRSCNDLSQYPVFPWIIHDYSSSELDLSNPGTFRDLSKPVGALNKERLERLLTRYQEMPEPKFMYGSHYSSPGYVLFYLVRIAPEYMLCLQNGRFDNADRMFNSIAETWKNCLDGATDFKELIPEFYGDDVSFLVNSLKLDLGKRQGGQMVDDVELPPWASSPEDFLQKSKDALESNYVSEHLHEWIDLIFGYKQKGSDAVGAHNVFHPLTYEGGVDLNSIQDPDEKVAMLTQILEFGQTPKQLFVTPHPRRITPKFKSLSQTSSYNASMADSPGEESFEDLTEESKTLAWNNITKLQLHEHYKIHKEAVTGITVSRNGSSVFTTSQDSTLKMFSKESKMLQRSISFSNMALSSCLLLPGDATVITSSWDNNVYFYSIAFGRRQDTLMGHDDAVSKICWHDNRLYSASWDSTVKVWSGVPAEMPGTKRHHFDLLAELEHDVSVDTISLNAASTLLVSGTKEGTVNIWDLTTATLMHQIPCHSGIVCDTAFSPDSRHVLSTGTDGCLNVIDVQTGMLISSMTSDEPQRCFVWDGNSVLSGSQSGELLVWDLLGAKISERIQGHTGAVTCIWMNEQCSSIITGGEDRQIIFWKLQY

rasf1_human RASSF1 = target: T3, rasf1_human RASSF1 (UniProt Q9NS23)
T3 sequence: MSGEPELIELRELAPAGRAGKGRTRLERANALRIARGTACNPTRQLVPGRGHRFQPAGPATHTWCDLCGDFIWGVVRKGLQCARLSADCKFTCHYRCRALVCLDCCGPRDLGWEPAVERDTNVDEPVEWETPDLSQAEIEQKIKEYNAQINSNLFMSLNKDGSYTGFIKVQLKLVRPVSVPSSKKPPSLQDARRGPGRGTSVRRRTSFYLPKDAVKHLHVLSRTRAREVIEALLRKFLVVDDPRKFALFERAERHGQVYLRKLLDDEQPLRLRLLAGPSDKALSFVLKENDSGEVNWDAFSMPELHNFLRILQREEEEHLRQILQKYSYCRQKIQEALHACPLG

effect of a mutation on the interaction (rasf5_human RASSF5) | effect of a mutation on the interaction (fyco1_human FYCO1) | effect of a mutation on the interaction (fan_human NSMAF) | effect of a mutation on the interaction (rasf1_human RASSF1) | Substance
increasing interaction |  |  |  | Microtubule-associated protein 1 light chain 3 beta (Homo sapiens) (from UniProt Q9GZQ8) F52A;L53A
 | decreasing interaction | disrupting interaction | decreasing interaction | Microtubule-associated protein 1 light chain 3 beta (Homo sapiens) (from UniProt Q9GZQ8) R69A
